# Entries after “also recorded” stand apart in the source; their conditions may differ.
# Tests used:
# [1] = Circular dichroism spectroscopy analysis (CD spectra, variable temperature measurement, refolding); assay type: physicochemical
# Experimental: The respective Y variant was diluted to 0.5 mg/ml in PBS. A CD spectrum at 250-195 nm was obtained at 20° C. In addition, a variable temperature measurement (VTM) was performed to determine the melting temperature (Tm). In the VTM, absorbance was measured at 221 nm while the temperature was raised from 20° C. to 90° C. with a temperature gradient of 5° C./min. A new CD spectrum was obtained at 20° C. after the heating procedure, in order to study the refolding ability of the Y variants. The CD measurements were performed on a Jasco J-810 spectropolarimeter (Jasco Scandinavia AB) using a cell with an optical path length of 1 mm.
# (§1) Produced Y variants were subjected to CD and SPR analyses according to the methods described in Example 1.
# (§2) The Y variants were cloned, produced and characterized according to the general methods described in Example 1. Produced Y variants with point mutations and/or N-terminal or C-terminal extensions were subjected to CD and SPR analyses as described in Example 1.
# (§3) Produced Y variants were subjected to CD and SPR analyses according to the methods described in Example 1. In addition, CD spectra of selected IL-6 binding variants were also recorded at 60, 70, 80 and 90° C.
# (§4) The Y variants were cloned, produced and characterized according to the general methods described in Example 1. Produced Y variants with point mutations were subjected to CD and SPR analyses as described in Example 1. In addition, CD spectra of the IL-6 binding variants were also recorded at 60, 70, 80 and 90° C.
# [2] = molecular target: T1, insulin (Homo sapiens, UniProt P01308); assay: Kinetic analysis using surface plasmon resonance (Biacore T200), immobilized insulin; assay type: binding
# T1 construct: purchased Roche 1376497
# T1 sequence (P01308 25-54 limits assumed): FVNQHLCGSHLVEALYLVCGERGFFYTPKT
# T1 sequence (P01308 90-110 limits assumed): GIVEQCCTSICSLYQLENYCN
# Experimental: Kinetic constants (ka and kd) and affinities (KD) were determined for His6-tagged Y variants using a Biacore T200 instrument (GE Healthcare). Target proteins C4, IL-6 and insulin, respectively, were immobilized in separate flow cells on the carboxylated dextran layer of different CM5 chip surfaces (GE Healthcare). Immobilization was performed using amine coupling chemistry according to the manufacturer's protocol and PBS pH 7.4 supplemented with 0.1 Tween20 (PBST 0.1%) as running buffer. The ligand immobilization levels on the surfaces were 3280-8830 RU for C4, 495-1184 RU for IL-6, and 270-282 RU for insulin. One flow cell surface on each chip was activated and deactivated for use as blank during analyte injections. In the kinetic experiment, PBST 0.1% was used as running buffer at a flow rate of 30 μl/min. The analytes, i.e. Y variants, were each diluted in PBST 0.1 buffer at concentrations of 1000, 500, 100, 50 and 10 nM and injected for 5 min, followed by dissociation in running buffer for 3 min. After dissociation, the surfaces were regenerated with one injection of 30 μl 10 mM HCl. Kinetic constants were calculated from the sensorgrams using the Langmuir 1:1 model of Biacore T200 Evaluation software 2.0 (GE Healthcare).
# as §1, §2, §3, §4
# [3] = Table 4, mutation study 2, MGSSHHHHHHGSS-[Y#####]
# [4] = Table 2, Ylib001Naive.I selection, MGSSHHHHHHGSS-[Y#####]-ASGSVD, 0.5 mg/ml in PBS, 221 nm, 20-90° C.
# [5] = Table 3, mutation study 1, MGSSHHHHHHGSS-[Y#####]
# [6] = Table 2, His6-tagged Y variant, MGSSHHHHHHGSS-[Y#####]-ASGSVD
Substance,"Tm [1, 3] [°C]","Tm [1, 5] [°C]","Kd [2, 5] [nM]",further results
"Y00291: C4 binding Y variant, Y00262 with E35Q + E39Q + A43K, SEQ ID NO:28 (LAEAKEAAIAELDSKGINEAIIKKIERAESVEEVQYWKQEILKQLP; Engineered C4 binding Y variant)",66,,,
"Y00289: C4 binding Y variant, Y00262 with E35Q + E39Q, SEQ ID NO:26 (LAEAKEAAIAELDSKGINEAIIKKIERAESVEEVQYWKQEILAQLP; Engineered C4 binding Y variant)",65,,,
"Y00285: C4 binding Y variant, Y00262 with I22K, SEQ ID NO:22 (LAEAKEAAIAELDSKGINEAIKKKIERAESVEEVEYWKEEILAQLP; Engineered C4 binding Y variant)",57,,,
"Y00284: C4 binding Y variant, Y00262 with E19A, SEQ ID NO:21 (LAEAKEAAIAELDSKGINAAIIKKIERAESVEEVEYWKEEILAQLP; Engineered C4 binding Y variant)",64,,,
"Y00004: C4 binding Y variant from Ylib001Naive.I, SEQ ID NO:4 (LAEAKEAANAELDSYGVDADLIKKIERAESVEEVEFWKEEILAHLP; Engineered C4 binding Y variant)",,,,"Tm [1, 4]: 45 °C"
"Y00272: insulin binding Y variant, Y00032 with A28G, SEQ ID NO:119 (LAEAKEAAIAELDSKGVGAYQKSFIELGKSVEHVELLKEAILADLP; Engineered insulin binding Y variant)",,34,110,
"Y00290: C4 binding Y variant, Y00262 with E35Q + A43K, SEQ ID NO:27 (LAEAKEAAIAELDSKGINEAIIKKIERAESVEEVQYWKEEILKQLP; Engineered C4 binding Y variant)",69,,,
"Y00269: insulin binding Y variant, Y00032 with S23K, SEQ ID NO:116 (LAEAKEAAIAELDSKGVGAYQKKFIELAKSVEHVELLKEAILADLP; Engineered insulin binding Y variant)",,50,390,
"Y00263: insulin binding Y variant, Y00032 with D13K, SEQ ID NO:110 (LAEAKEAAIAELKSKGVGAYQKSFIELAKSVEHVELLKEAILADLP; Engineered insulin binding Y variant)",,43,130,
"Y00032: insulin binding Y variant from Ylib001Naive.I, SEQ ID NO:90 (LAEAKEAAIAELDSKGVGAYQKSFIELAKSVEHVELLKEAILADLP; Engineered insulin binding Y variant)",49,49,63,"α-helical content / ability to fold into an α-helical structure ([1]; CD spectrum at 20° C.): considerably higher α-helical content; also recorded: good ability to fold into an α-helical structure; Tm [1, 4]: 47 °C; Kd [2, 6]: 50 nM"
"Y00275: insulin binding Y variant, Y00032 with E39Q, SEQ ID NO:122 (LAEAKEAAIAELDSKGVGAYQKSFIELAKSVEHVELLKQAILADLP; Engineered insulin binding Y variant)",,54,59,
"Y00287: C4 binding Y variant, Y00262 with E35Q, SEQ ID NO:24 (LAEAKEAAIAELDSKGINEAIIKKIERAESVEEVQYWKEEILAQLP; Engineered C4 binding Y variant)",62,,,
"Y00267: insulin binding Y variant, Y00032 with A19E, SEQ ID NO:114 (LAEAKEAAIAELDSKGVGEYQKSFIELAKSVEHVELLKEAILADLP; Engineered insulin binding Y variant)",,48,59,
"Y00264: insulin binding Y variant, Y00032 with K15Y, SEQ ID NO:111 (LAEAKEAAIAELDSYGVGAYQKSFIELAKSVEHVELLKEAILADLP; Engineered insulin binding Y variant)",,48,64,
"Y00283: C4 binding Y variant, Y00262 with N18S, SEQ ID NO:20 (LAEAKEAAIAELDSKGISEAIIKKIERAESVEEVEYWKEEILAQLP; Engineered C4 binding Y variant)",61,,,
"Y00271: insulin binding Y variant, Y00032 with E26Q, SEQ ID NO:118 (LAEAKEAAIAELDSKGVGAYQKSFIQLAKSVEHVELLKEAILADLP; Engineered insulin binding Y variant)",,49,47,
"Y00125: insulin binding Y variant, SEQ ID NO:106; differs from Y00032 by N in position 9 (LAEAKEAANAELDSKGVGAYQKSFIELAKSVEHVELLKEAILADLP; Engineered insulin binding Y variant)",,,,"Tm [1, 4]: 35 °C; Kd [2, 6]: 110 nM"
"Y00268: insulin binding Y variant, Y00032 with K22I, SEQ ID NO:115 (LAEAKEAAIAELDSKGVGAYQISFIELAKSVEHVELLKEAILADLP; Engineered insulin binding Y variant)",,49,84,
"Y00262: C4 binding Y variant, Y00001 with S23K, SEQ ID NO:18 (LAEAKEAAIAELDSKGINEAIIKKIERAESVEEVEYWKEEILAQLP; Engineered C4 binding Y variant)",61,61,,
"Y00274: insulin binding Y variant, Y00032 with E35Q, SEQ ID NO:121 (LAEAKEAAIAELDSKGVGAYQKSFIELAKSVEHVQLLKEAILADLP; Engineered insulin binding Y variant)",,53,56,
"Y00276: insulin binding Y variant, Y00032 with A43K, SEQ ID NO:123 (LAEAKEAAIAELDSKGVGAYQKSFIELAKSVEHVELLKEAILKDLP; Engineered insulin binding Y variant)",,50,76,
"Y00294: insulin binding Y variant, Y00270 with E35Q + A43K, SEQ ID NO:126 (LAEAKEAAIAELDSKGVGAYQIKFIELAKSVEHVQLLKEAILKDLP; Engineered insulin binding Y variant)",54,,,"Kd [2, 3]: 490 nM"
"Y00006: C4 binding Y variant from Ylib001Naive.I, SEQ ID NO:6 (LAEAKEAAIAELDSYGVVANLKKKIEIAKSVEQVEFWKEEILAQLP; Engineered C4 binding Y variant)",,,,"Tm [1, 4]: 49 °C"
"Y00282: C4 binding Y variant, Y00262 with I17V, SEQ ID NO:19 (LAEAKEAAIAELDSKGVNEAIIKKIERAESVEEVEYWKEEILAQLP; Engineered C4 binding Y variant)",61,,,
"Y00288: C4 binding Y variant, Y00262 with E39Q, SEQ ID NO:25 (LAEAKEAAIAELDSKGINEAIIKKIERAESVEEVEYWKQEILAQLP; Engineered C4 binding Y variant)",66,,,
"Y00286: C4 binding Y variant, Y00262 with E26Q, SEQ ID NO:23 (LAEAKEAAIAELDSKGINEAIIKKIQRAESVEEVEYWKEEILAQLP; Engineered C4 binding Y variant)",62,,,
"Y00273: insulin binding Y variant, Y00032 with E32Q, SEQ ID NO:120 (LAEAKEAAIAELDSKGVGAYQKSFIELAKSVQHVELLKEAILADLP; Engineered insulin binding Y variant)",,,77,
"Y00001: C4 binding Y variant from Ylib001Naive.I, SEQ ID NO:1 (LAEAKEAAIAELDSKGINEAIISKIERAESVEEVEYWKEEILAQLP; Engineered C4 binding Y variant)",,57,,"Tm [1, 4]: 61 °C"
"Y00005: C4 binding Y variant from Ylib001Naive.I, SEQ ID NO:5 (LAEAKEAAIAELDSAGVNEVQKSKIEQASSVEEVEFWKEEILAQLP; Engineered C4 binding Y variant)",,,,"Tm [1, 4]: 60 °C"

# Source: patent publication US11505576B2, “Polypeptides based on a scaffold” (AFFIBODY AB, priority 2018, dated 2022)
